In patent US20250019450A1 (DIAGONAL THERAPEUTICS, published 2025):
Values belong to the binder of their own block, whether it stands above or below them.

What was measured:
[1] = target: T1, cyno IL-12RB2 with C-terminal HA tag, transiently expressed on HEK-293T cells (cyno, UniProt A0A2K5VNI7 24-860); experiment: FACS, periplasmic extract, HEK-293T
T1 construct: whole, on cells; also called cyno IL-12Rβ2
T1 sequence: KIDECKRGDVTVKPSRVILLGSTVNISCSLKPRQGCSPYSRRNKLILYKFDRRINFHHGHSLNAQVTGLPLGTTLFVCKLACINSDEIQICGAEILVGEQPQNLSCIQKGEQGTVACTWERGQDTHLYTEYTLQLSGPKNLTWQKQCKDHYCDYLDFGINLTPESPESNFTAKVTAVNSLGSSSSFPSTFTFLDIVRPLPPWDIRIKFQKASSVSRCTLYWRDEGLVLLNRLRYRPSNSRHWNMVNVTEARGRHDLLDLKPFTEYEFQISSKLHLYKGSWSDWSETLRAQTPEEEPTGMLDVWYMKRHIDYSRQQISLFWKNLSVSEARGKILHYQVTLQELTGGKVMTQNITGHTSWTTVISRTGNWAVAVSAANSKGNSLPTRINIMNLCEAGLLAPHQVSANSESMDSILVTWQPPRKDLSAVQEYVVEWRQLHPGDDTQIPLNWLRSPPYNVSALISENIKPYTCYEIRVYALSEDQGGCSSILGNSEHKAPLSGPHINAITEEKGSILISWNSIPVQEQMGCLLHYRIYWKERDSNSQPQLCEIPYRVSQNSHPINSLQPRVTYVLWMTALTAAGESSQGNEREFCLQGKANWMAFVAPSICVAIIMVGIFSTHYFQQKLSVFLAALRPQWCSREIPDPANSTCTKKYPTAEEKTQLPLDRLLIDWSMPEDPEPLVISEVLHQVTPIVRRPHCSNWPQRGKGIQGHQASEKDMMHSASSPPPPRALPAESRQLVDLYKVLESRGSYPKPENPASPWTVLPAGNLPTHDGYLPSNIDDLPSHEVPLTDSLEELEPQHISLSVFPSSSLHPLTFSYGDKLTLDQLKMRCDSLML

[2] = target: T2, human IL-12RB2 with C-terminal HA tag, transiently expressed on HEK-293T cells (human, UniProt Q99665 24-862); experiment: FACS, periplasmic extract, HEK-293T
T2 construct: whole, on cells; also called human IL-12Rβ2
T2 sequence (looked up): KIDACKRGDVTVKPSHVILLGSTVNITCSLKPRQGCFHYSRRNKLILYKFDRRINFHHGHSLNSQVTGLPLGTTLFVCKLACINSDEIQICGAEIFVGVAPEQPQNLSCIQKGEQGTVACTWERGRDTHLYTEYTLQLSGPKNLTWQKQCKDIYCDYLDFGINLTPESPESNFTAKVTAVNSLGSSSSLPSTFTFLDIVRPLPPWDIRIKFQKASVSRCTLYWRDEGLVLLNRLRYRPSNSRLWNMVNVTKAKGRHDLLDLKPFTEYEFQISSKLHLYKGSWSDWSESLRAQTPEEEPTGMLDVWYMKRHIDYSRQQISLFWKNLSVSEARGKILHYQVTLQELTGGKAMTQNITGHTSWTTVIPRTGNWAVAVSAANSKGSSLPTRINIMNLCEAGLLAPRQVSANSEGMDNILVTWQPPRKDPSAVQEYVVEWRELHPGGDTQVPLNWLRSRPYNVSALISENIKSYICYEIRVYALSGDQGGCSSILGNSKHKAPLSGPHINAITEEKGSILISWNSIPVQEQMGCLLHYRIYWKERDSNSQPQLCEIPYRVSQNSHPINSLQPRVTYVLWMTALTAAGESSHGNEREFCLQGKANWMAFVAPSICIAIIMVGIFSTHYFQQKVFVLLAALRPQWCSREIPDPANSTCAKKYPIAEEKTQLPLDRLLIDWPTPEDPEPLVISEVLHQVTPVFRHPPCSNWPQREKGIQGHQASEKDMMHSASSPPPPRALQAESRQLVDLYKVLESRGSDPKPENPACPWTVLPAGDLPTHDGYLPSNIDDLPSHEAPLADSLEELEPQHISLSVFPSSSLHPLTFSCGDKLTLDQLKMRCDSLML

[3] = target: T3, human IL-12Rβ2-huFc-his (R&D system), biotinylated (human, UniProt Q99665 24-622, limits assumed, biotinylated); experiment: ELISA, periplasmic extract
T3 construct: bought; captured on Neutravidin in the ELISA; also called Bio-huIL-12Rβ2-huFc-His
T3 sequence (looked up): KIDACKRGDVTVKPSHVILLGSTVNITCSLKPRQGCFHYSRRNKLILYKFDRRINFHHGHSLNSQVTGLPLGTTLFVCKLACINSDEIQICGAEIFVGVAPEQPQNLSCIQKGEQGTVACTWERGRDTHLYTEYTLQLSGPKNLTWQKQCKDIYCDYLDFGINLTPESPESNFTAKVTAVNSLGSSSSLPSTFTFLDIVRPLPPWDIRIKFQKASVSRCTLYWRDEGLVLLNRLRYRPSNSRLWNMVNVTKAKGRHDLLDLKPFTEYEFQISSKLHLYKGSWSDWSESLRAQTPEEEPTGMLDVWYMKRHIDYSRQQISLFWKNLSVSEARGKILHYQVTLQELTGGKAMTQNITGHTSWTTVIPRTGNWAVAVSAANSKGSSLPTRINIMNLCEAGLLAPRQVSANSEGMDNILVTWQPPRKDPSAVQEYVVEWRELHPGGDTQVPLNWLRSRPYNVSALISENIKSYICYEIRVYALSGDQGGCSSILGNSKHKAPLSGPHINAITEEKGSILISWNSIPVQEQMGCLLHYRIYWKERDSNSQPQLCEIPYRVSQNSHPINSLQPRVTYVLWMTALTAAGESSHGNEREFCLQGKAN

[4] = target: T4, IL-12 receptor endogenously expressed on THP-1 cells (UniProt P42701 24-662; Q99665 24-862); experiment: FACS, hybridoma supernatant, THP-1
T4 construct: whole, on cells

[5] = target: T5, human IL-12RB1 overexpressed on 293T cells (Example 2) (human, UniProt P42701 24-662); experiment: FACS, hybridoma supernatant, 293T
T5 construct: whole, on cells

[6] = target: T6, cyno IL-12RB1 overexpressed on 293T cells (Example 2) (cyno, UniProt A0A2K5VWV1 24-662); experiment: FACS, hybridoma supernatant, 293T
T6 construct: whole, on cells

B2: VHH68B2 (VHH)
VHH: EVQLVESGGGLVQAGGSLKLSCAASGGTFSSYAMGWFRQAPGKEREFVAAIMRSGDTTVYVDSVKGRFTVSRDNAKNTVYLQMNSLKPEDAAVYYCAAGRPVTRTYYSTYTYPHDYDYWGQGTQVTVSS
FOB [1]: 3.47 fold | FOB [2]: 2.25 fold | OD450 nm [3]: 2.13

B8: 85801_01D14 (antibody, V domains shown)
VH: EVQLVESGGGLVKPGGSLRLSCAASGFTFSNAWMNWVRQAPGKGLEWVGRIKSKTDGGTTDYAAPVKGRFTVSRDDPKNTLYLQMNSLKTEDTAVYYCTTDPGWEFDYWGQGILVTVSS
VL: DIQMTQSPSSLSASVGDRVTITCQASQDISNFLNWYQQKPGKAPNLLIYDASDLETGVPSRFSGSGSGTDFTFTISSLQPEDIATYYCQQYDNLPLTFGGGTKVEIK
notes: also called 85801_01D14A
Fold over buffer [4]: 24 fold | Fold over parental 293T [5]: 116 fold | Fold over parental 293T [6]: 52 fold

B9: 85801_01L02 (antibody, V domains shown)
VH: QVQLVHSGPEVKKPGASVKVSCKASGYTFTDYYMHWVRQAPGQGLEWMGWINPDSGGTNYAQKFQGRVTMTRDTSISTAYMELSRLRSDDTAVYHCAREGATSNFDYWGQGTLVTVSS
VL: DIQMTQSPSSLSASVGDRVTITCRASQGISNYLAWFQQKPGKAPTSLIYAASNLQGGVPSKFSGSGSGTDFTLTISSLQPEDFATYYCQQYRYYPFTFGPGTKVDIK
notes: also called 85801_01L02A
Fold over buffer [4]: 41 fold | Fold over parental 293T [5]: 117 fold | Fold over parental 293T [6]: 32 fold

B10: 85801_01M07 (antibody, V domains shown)
VH: QVQLVQSGAEVKKPGASVKVSCKASEYTFTDDYMHWVRQAPGQGLVWMGWINPNSGGTNYAQKFQGRVTMTRDTSISTAYMELSRLRSDDTAVYYCARGGLNWGWDWFDPWGQGTLVTVSS
VL: EIVLTQSPGTLSLSPGERATLSCRASQNINNNYLAWYQRKPGQAPRLLIYGASSRATGIPDRFSGSGSGTDFTLTISRLEPEDFAMYYCQQYGSSLTFGGGTKVEIK
notes: also called 85801_01M07A
Fold over buffer [4]: 7 fold | Fold over parental 293T [5]: 91 fold | Fold over parental 293T [6]: 28 fold

B11: VHH13B2 (VHH)
VHH: QVQLVESGGGLVRPGGSLRLSCAASGFTFSSNGMHWFRQAPGKGLEWVSSIGSGGTSIYYADSVKGRFTISRDNAKNTLYLQMNSLKSDDTAVYYCSKEVTGATRGQGTQVTVSS
FOB [1]: 2.65 fold | FOB [2]: 1.77 fold | OD450 nm [3]: 1.71

B12: VHH19B2 (VHH)
VHH: QVQLVESGGGLVQPGGSLRLSCAASGFTFSNYAMSWVRQAPGKGLEWVSAINSDGTSTSYADSVKGQFTISRDNAKNTLYLQMNSLKPEDTAVYYCTKWEGDTDSDYKFKDYWGQGTQVTVSS
FOB [1]: 2.75 fold | FOB [2]: 1.63 fold | OD450 nm [3]: 1.3

B13: VHH64B2 (VHH)
VHH: QVQLVESGGGLVQPGGSLRLSCAASGFTFSSKAMHWFRQAPGKGLEWVSSINSGGAITYYKDSVKGRFTVSRDNAKNILYLEMNSLKPEDTALYYCATDTDGRTRGQGTQVTVSS
FOB [1]: 2.69 fold | FOB [2]: 1.68 fold | OD450 nm [3]: 2.22

The next lines start with the values.

FOB [1]: 1.28 fold | FOB [2]: 3.17 fold | OD450 nm [3]: 0.961
B1: VHH222B2 (VHH)
VHH: QVQLVESGGGLVQAGGSLRLSCAASGRIFSAYRMGWFRQAPGKEREFVAGITWRGQTTYYAASVKGRFTISKDNAKKTVYLQMNSLKPEETAVYYCAVETNGLGRWDRPSEYDYWGQGTQVTVSS

FOB [1]: 3.97 fold | FOB [2]: 2.46 fold | OD450 nm [3]: 0.794
B3: VHH278B2 (VHH)
VHH: QVQLVESGGGLVQAGGSLKLSCAASGGTFSSYAMGWFRQAPGKEREFVAVIMRSGDTTAYVDSVKGRFTVSRDNAKNTVYLQMNSLKPEDAAVYFCAAGRPVTRTYYHTYTYPHDYDYWGQGTQVTVSS

FOB [1]: 2.88 fold | FOB [2]: 1.91 fold | OD450 nm [3]: 3.19
B4: VHH289B2 (VHH)
VHH: QVQLVESGGGLVQAGGSLKLSCAASGGTFSSYAMGWFRQAPGKEREFVAAIMRSGGTTVYVNSVKGRFTVSRDNAKNTVYLQMNSLKPEDAAVYYCAAGRPVSRTSYYTYTYPHDYDYWGQGTQVSVSS

FOB [1]: 3.16 fold | FOB [2]: 1.95 fold | OD450 nm [3]: 0.626
B5: VHH307B2 (VHH)
VHH: QVQLVESGGGLVQAGGSLRLSCAASGRTFSRYIMGWFRQATGKEREFVAAISWSGLSTHYADSVQGRFTISRDNAENTVYLQMNSLKPEDTAVYYCAADRHWETRLLPREYDYWGQGTQVTVSS

FOB [1]: 3.21 fold | FOB [2]: 1.99 fold | OD450 nm [3]: 1.67
B6: VHH322B2 (VHH)
VHH: QLQLVESGGGLVQAGGSLRLSCAASGRTFGIHGMGWFRQAPGKEREFAAAIRWSDGTTIHADSVKGRLTISRDNAKNTVYLQMNSLKPEDTAVYYCAATSNPQFGRNWYTVAAGVEYGYWGQGTQVTVSS

FOB [1]: 4.01 fold | FOB [2]: 2.16 fold | OD450 nm [3]: 1.35
B7: VHH361B2 (VHH)
VHH: QVQLVESGGGLVQTGASLRLSCAASGRTFGRYEMAWFRQAPGKEREFVAHISSSGLTTTYADSVKGRFTISRGNALNTVYLQMNSLKPEDTAVYYCAANVDGSAWSTLGAGMDYWGKGTLVTISS

FOB [1]: 2.32 fold | FOB [2]: 1.73 fold | OD450 nm [3]: 0.581
B14: VHH67B2 (VHH)
VHH: QVQLVESGGGLVQPGGSLRLSCAASGFTFSNYAMSWIRQGPERGFEWVSRINSGGGTTSYADSVKGRFTISRDNAKNTLYLQMNSLKPEDTAVYYCAKHSHPDYSSNYYRPGQGTQVTVSS
